Assay results as given in the supplement of paper PMC10567573.

B1: ZNF207 (parent)
chain: FQPQPVQPQQGYIPPMAQPGLPPV

Variants of: B1
Test: protein stability index of a GFP-peptide fusion (GPS, HEK-293T) (PSI 1-6); higher = more stable
Conditions: c terminus: a fixed tail appended
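Note: lentivirally expressed fusions sorted by FACS into six bins by GFP to DsRed ratio, PSI derived from sequencing read proportions per bin multiplied by bin number.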

Protein stability index, by site and new letter:
Q18: L 2.91; R 3.37
P8: Y 2.53; D 3.32; I 3.1; G 2.96
V6: F 2.19; I 2.96; G 3.1
Q10: Y 2.64; R 2.79; V 2.04; M 2.81; A 2.84; L 2.16; F 2.31; K 2.98; H 2.62; P 3.07
P19: C 3.1; A 3.32; S 3.19
Q2: F 3.18; G 3.61; R 3.46; W 2.54; V 2.51; C 2.18; I 1.9; E 3.98; S 3.16
V24: G 3.1; C 2.95; F 2.35; H 2.71; D 3.9; M 2.8; W 1.8; N 2.67
G11: L 2.65; S 2.8; Y 2.18; V 2.56; W 2.19; I 2.29
Q7: R 2.83; Y 2.5; G 2.78; C 2.88; H 2.82; F 2.72
L21: M 3.68; F 2.66; E 4.13; G 3.24; R 3.38; V 2.73; D 4.12; C 3.64
P23: K 2.95; V 3.13; E 3.07; Y 2.42; M 2.9; T 2.89
Q9: H 3.24; A 3.35; K 2.91; G 2.74; N 2.72; W 1.88; D 3.59; S 3.43; M 2.88; L 2.54; V 3.61
G20: L 3.15; K 2.27; D 2.89; E 3.23
P5: E 3.62; M 2.61; W 1.62; G 3.45; T 2.62; C 2.29; K 3.17
P3: D 3.62; S 3.73; G 3.8; F 2.49; A 3.48; R 3.25; H 3.8; V 3.52; K 3.04; C 3.47; E 3.94; W 2.26; L 3.2
I13: A 3.8; N 3.17; H 3.54; M 2.99; Y 2.88
Y12: N 3.77; R 3.66; D 3.73; V 3.86; C 3.55; A 3.75; K 3.7; W 2.6; M 3.72; F 2.81
A17: T 3.22; L 2.85; K 3.04; H 3.12; I 3.17; D 3.35
Q4: E 3.58; L 2.88; Y 1.83; R 2.78; D 3.01; W 1.81; K 2.92; G 2.71
P15: Q 3.09; H 2.74; F 2.3; A 3.13; N 3.45; I 2.17; E 2.96; T 3.14; C 2.45
P22: E 3.08; Q 3.33; H 2.83; W 1.85; F 2.54; Y 2.29; V 2.72; N 2.74
P14: T 2.75; A 2.96; D 3.37; S 3.08; H 2.75; M 2.88; F 2.93; L 2.52; Y 2.65; V 2.9
F1: V 3.91; D 4.47; T 3.5; Y 3.61; S 4.38; I 3.9; H 4.06
M16: E 3.54; F 2.43; G 3.49; I 3.3
